The DeepSol protein solubility set

Assay: soluble on expression in E. coli; label from the status in PepcDB or PDB records

| Sequence | soluble on expression in E. coli |
| --- | --- |
| ASLFPPGLHAIYGECRRLYPDQPNPLQVTAIVKYWLGGPDPLDYVSMYRNVGSPSANIPEHWHYISFGLSDLYGDNRVHEFTGTDGPSGFGFELTFRLKRETGESAPPTWPAELMQGLARYVFQSENTFCSGDHVSWHSPLDNSESRIQHMLLTEDPQMQPVQTPFGVVTFLQIVGVCTEELHSAQQWNGQGILELLRTVPIAGGPWLITDMRRGETIFEIDPHLQERVDKGIETD | soluble |
| MGSDKIHHHHHHMSMTDTTLAETEILLAQPRGFCAGVDRAIEIVERAIKLHGSPIYVRHEIVHNAYVVEDLRKKGAIFIERLEEVPPGNTVIFSAHGVSKAVRSEAEIRGLRVYDATCPLVTKVHIEVAKMRQDGFDIVMIGHKGHPEVEGTMGQAGEGMHLVEDIEDVQALQLADPERIAFVTQTTLSVDDAAQIIAALKAKYPSIREPKKQDICYATQNRQDAVKFMAPQCDVVIVVGSPNSSNSNRLRELAEKLGVPAYMVDSPDQIDPVWVEGKRRIGVTAGASAPEVLAQAVIARLRELGVRNVRALDGIEENIAFPLPRGLGLPA | not soluble |
| MNKEEQVMMSLRELFNKMAWLNKLKMEDSLKGYKPSEVHYIECIGKNVDSNVTKLAKSLYMTRGAISKMTKKLIEKNIVESYQKADNKKEIYFRLTEKGHEIYKLHENLHKEFQERDKVVFEQVTDEQFESMLSFIEKYSKHLDSEIKKLGIDTKLE | not soluble |
| MAAAAELSLLEKSLGLSKGNKYSAQGERQIPVLQTNNGPSLMGLTTIAAHLVKQANKEYLLGSTAEEKAMVQQWLEYRVTQVDGHSSKNDIHTLLMDLNSYLEDKVYLTGYNFTLADILLYYGLHRFIVDLTVQEKEKYLNVSRWFCHIQHYPGIRQHLSSVVFIKNRLYTNSH | soluble |
| MAHHHHHHMEDITWVRSEVHSWIYDNLRAKWTSLVRQPTKLRTMFSGYRSTPTFVDRVLRRVGIANEIALTAMLRTWGPPELHAFVALYVRLRFPMIVALNKADLSTAADVAAALRQAYPHEVFVLMTARIEWLALQLSRKGYVDYTPGAASLSLKADCGEGADLEKRVRQELHDVTSFFRTTTSSPERLSSSVLRLTTTGVQDVLAAAMEACGVMLVYPVRAFHPVTSLAHCLTFKLGSSAERVFNALVHLQLLEGKLARFEMIDLAPVKRQLHQQLLASLATAPSNEASTPVPAQQQQCAVALPTSVQTLRKTEVIRSSAVLARILSNKRQLA | not soluble |
| MSLKAAVLKNYGTLPEYQEFPEPKPKNYDELLVTPIASSVKRLDVIRAAGKHYTKFSELPAVMGMDGVAKLDNNSRVYAMGITGMMAEKALIDQRTMTVLPDGLDAGLAAALPNALIGSDLALLERGKIKTGDVVFINGATGLTGSLAVQMAKLRGAKRVIVTGRDPIKLQHLKDLGAYLTITTNQPDNSFVKELINAYNQSPFNLILDYLWGHPAELIIEALRRIRFLNSLKYISIGSLAGEGISVPSQLLRSKDLELIGSGIGSLDPNAVQVYMQKHLTEIFDYANQGKLSMELKSFPLDKISSAWISAPAVITIEGHHHHHH | not soluble |
| MTLTVSPTAARTPAEEKARFEGNKLAKRLARETTRAIADYNMIEAGDKVMVCLSGGKDSYALLDILLSLQKRAPFAFEIIAVNLDQKQPGFPPEILPGYLRALGVPFHIETQDTYSIVTRVIPEGKTMCSLCSRLRRGILYRVASELGATKIALGHHRDDILGTFFLNLFYGGKAKGMPPKLVSDDGRHTVIRPLAYVPESDLIAYAQFKQFPIIPCNLCGSQENLKRKEVGRMIQEWDRKHPGRSWNVFNALSRVVPSHLMDRDLFDFVGLKPTGVADAGGDTAFDQIDPEPDTAGPGCASDAPAGQADGMAEQRVVFR | not soluble |
| MLITISVARSENYYCVQVASSEKLEDLIPLFEKFKNMDNVRIEKIGGFYTLRIGFYLNKSDVLKILPEIKEKYRDAFVRVCEYDLSRVVFPKPEKVITLEQQEIEESKTTKENFLMLLEKNIEELKKLTEIIARGNTTKVKPFEKLESTVVEMYKQKEKSYKRAFPLYINGEFRYRGKALTGENLLGDKWYSYLGLKLSFFRRGFADFKYEKERAKFAKLFSEFDIQKEYTYLLAFQSQEEVFLKGLKYELGVVESEKNKTLSLLKDWVKFTESYDKSLGFPYRELIKKEELEGIESVSNGFFLKPMKINVEEFMKYYEKRKKDVEEYLKKFEIKTTDKWFYLRHTDLDVFARYYFAGKDGNTRDFWALGLRFELPIPYIITDLGKVDKLEILSFKERARLSYATTYSFLFDYISRINRNYSNIVNHLEQINVNFLEIEREIYFWKNGLREANYTLILRNLLDTYHRLEQLIYLKYINYVYIQKLIYFMDIKEEEIIRRILDG | not soluble |
